# Residue numbers refer to the chain shown, from its start. In names and notes the source's numbering stands.
# B1: variant CD80 IgV-Fc Y31S/E35D/M47L/T79L/E88G (Fc fusion, not shown: a dimerising Fc or GST)
# chain: VIHVTKEVKEVATLSCGHNVSVEELAQTRISWQKDKKMVLTMMSGDLNIWPEYKNRTIFDITNNLSIVILALRPSDEGLYECVVLKYGKDAFKREHLAEVTLSVKAD
# B2: variant CD80 IgV-Fc V22A/E23D/Q33L/E35D/M47V (Fc fusion, not shown: a dimerising Fc or GST)
# chain: B1 chain with V22A, E23D, S31Y, Q33L, L47V, L79T, G88E
# B3: variant CD80 IgV-Fc Q33L/E35D/M47I/T62N/L85Q (Fc fusion, not shown: a dimerising Fc or GST)
# chain: B1 chain with S31Y, Q33L, L47I, T62N, L79T, L85Q, G88E
# B4: CD80 WT IgV-Fc (Fc fusion, not shown: a dimerising Fc or GST)
# chain: B1 chain with S31Y, D35E, L47M, L79T, G88E
# notes: also called WT CD80 IgV-Fc; wild-type CD80 IgV-Fc
# B5: variant CD80 IgV-Fc D46V/M47I/A71G (Fc fusion, not shown: a dimerising Fc or GST)
# chain: B1 chain with S31Y, D35E, D46V, L47I, A71G, L79T, G88E
# B6: variant CD80 IgV-Fc E35D/M47I/N48K/I61F (Fc fusion, not shown: a dimerising Fc or GST)
# chain: B1 chain with S31Y, L47I, N48K, I61F, L79T, G88E
# B7: variant CD80 IgV-Fc E35D/D46E (Fc fusion, not shown: a dimerising Fc or GST)
# chain: B1 chain with S31Y, D46E, L47M, L79T, G88E
# B8: variant CD80 IgV-Fc E35D/D46E/L85M (Fc fusion, not shown: a dimerising Fc or GST)
# chain: B1 chain with S31Y, D46E, L47M, L79T, L85M, G88E
# B9: variant CD80 IgV-Fc E35D/T41S/N48I (Fc fusion, not shown: a dimerising Fc or GST)
# chain: B1 chain with S31Y, T41S, L47M, N48T, L79T, G88E
# notes: also called E35D/T41S/N48T
# B10: variant CD80 IgV-Fc H18Y/E35D/M47L/A71G/A91S (Fc fusion, not shown: a dimerising Fc or GST)
# chain: B1 chain with H18Y, S31Y, A71G, L79T, G88E, A91S
# B11: variant CD80 IgV-Fc E35D/M47L/A71G/L85M (Fc fusion, not shown: a dimerising Fc or GST)
# chain: B1 chain with S31Y, A71G, L79T, L85M, G88E
# B12: variant CD80 IgV-Fc E35D/M43I/D46E/A71G/L85M (Fc fusion, not shown: a dimerising Fc or GST)
# chain: B1 chain with S31Y, M43I, D46E, L47M, A71G, L79T, L85M, G88E
# B13: variant CD80 IgV-Fc M47I/A71G (Fc fusion, not shown: a dimerising Fc or GST)
# chain: B1 chain with S31Y, D35E, L47I, A71G, L79T, G88E
# B14: variant CD80 IgV-Fc E35D/D46E/M47I (Fc fusion, not shown: a dimerising Fc or GST)
# chain: B1 chain with S31Y, D46E, L47I, L79T, G88E
# B15: variant CD80 IgV-Fc H18Y/E35D (Fc fusion, not shown: a dimerising Fc or GST)
# chain: B1 chain with H18Y, S31Y, L47M, L79T, G88E
# B16: variant CD80 IgV-Fc Q27H/E35D/M47I (Fc fusion, not shown: a dimerising Fc or GST)
# chain: B1 chain with Q27H, S31Y, L47I, L79T, G88E
# B17: variant CD80 IgV-Fc Q27L/E35D/M47V/I61V/L85M (Fc fusion, not shown: a dimerising Fc or GST)
# chain: B1 chain with Q27L, S31Y, L47V, I61V, L79T, L85M, G88E
# B18: variant CD80 IgV-Fc E35D/D46E/A91G (Fc fusion, not shown: a dimerising Fc or GST)
# chain: B1 chain with S31Y, D46E, L47M, L79T, G88E, A91G
# B19: variant CD80 IgV-Fc E35D/M47V (Fc fusion, not shown: a dimerising Fc or GST)
# chain: B1 chain with S31Y, L47V, L79T, G88E
# B20: variant CD80 IgV-Fc M43I/M47L/A71G (Fc fusion, not shown: a dimerising Fc or GST)
# chain: B1 chain with S31Y, D35E, M43I, A71G, L79T, G88E
# B21: variant CD80 IgV-Fc E35D/M47I/V68M/Y87N (Fc fusion, not shown: small tags and cut ends; a dimerising Fc or GST)
# chain: B1 chain with S31Y, L47I, V68M, L79T, Y87N, G88E
# B22: variant CD80 IgV-Fc E35D/D46E/M47L/V68M/A71G/Y87C/K93R (Fc fusion, not shown: small tags and cut ends; a dimerising Fc or GST)
# chain: B1 chain with S31Y, D46E, V68M, A71G, L79T, Y87C, G88E, K93R
# Biological target: T1, human CTLA4 (full-length, expressed on CHO cells) (human, UniProt P16410 36-223)
# T1 construct: also called huCTLA4
# T1 sequence (P16410 36-223): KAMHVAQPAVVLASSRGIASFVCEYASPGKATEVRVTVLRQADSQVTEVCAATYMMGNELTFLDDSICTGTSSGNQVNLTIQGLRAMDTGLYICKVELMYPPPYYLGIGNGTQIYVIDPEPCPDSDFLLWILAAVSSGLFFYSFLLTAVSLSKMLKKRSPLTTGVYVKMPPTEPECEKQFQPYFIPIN
# Test: flow cytometry, CHO cells expressing huCTLA4, PE anti-human Fc
row,Binder,MFI at 33.3 nM
1,B1,1100 MFI
2,B2,3640 MFI
3,B3,1660 MFI

# Biological target: T2, human PD-L1 (full-length, expressed on CHO cells) (human, UniProt Q9NZQ7 19-290)
# T2 construct: also called huPD-L1; CD274
# T2 sequence (Q9NZQ7 19-290): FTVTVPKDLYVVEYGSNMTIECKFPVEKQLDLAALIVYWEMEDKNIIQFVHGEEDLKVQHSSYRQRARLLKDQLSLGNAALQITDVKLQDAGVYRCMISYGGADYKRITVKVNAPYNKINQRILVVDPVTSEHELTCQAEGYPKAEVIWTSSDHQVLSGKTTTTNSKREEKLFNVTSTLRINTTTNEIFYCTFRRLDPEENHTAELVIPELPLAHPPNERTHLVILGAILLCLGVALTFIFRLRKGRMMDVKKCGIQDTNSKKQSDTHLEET
# Test: flow cytometry, CHO cells expressing huPD-L1, PE anti-human Fc
row,Binder,MFI at 33.3 nM
1,B1,38900 MFI
2,B2,75500 MFI
3,B3,72600 MFI

# Biological target: T3, CD28 on Jurkat/IL2 reporter cells (human, UniProt P10747 19-220)
# T3 construct: whole, on cells; Endogenous CD28 of Jurkat cells; also called Jurkats (CD28)
# Test: flow cytometry, Jurkat cells (CD28)
row,Binder,MFI at 33.3 nM
1,B4,66 MFI
2,B5,1320 MFI
3,B6,816 MFI
4,B7,779 MFI
5,B8,164 MFI
6,B9,72.4 MFI
7,B10,528 MFI
8,B11,199 MFI
9,B12,200 MFI
10,B13,823 MFI
11,B14,1000 MFI
12,B15,479 MFI
13,B16,756 MFI
14,B17,230 MFI
15,B18,3450 MFI
16,B19,461 MFI
17,B20,1000 MFI

# Biological target: T1, human CTLA4 (full-length, expressed on …)
# Test: flow cytometry MFI at 33.3 nM relative to WT CD80 ECD-Fc (R&D), CHO/huCTLA4 cells
row,Binder,Fold change to WT CD80
1,B1,0.01 fold
2,B2,0.02 fold
3,B3,0.01 fold

# Biological target: T4, human PD-L1 on CHO cells (human, UniProt Q9NZQ7 19-290)
# T4 construct: whole, on cells; CHO cells stably expressing PD-L1; also called huPD-L1
# T4 sequence (Q9NZQ7 19-290): as above
# Test: flow cytometry, CHO/PD-L1 cells; MFI relative to WT CD80
row,Binder,Fold change to WT CD80
1,B4,1 fold
2,B5,104 fold
3,B6,80 fold
4,B7,53.4 fold
5,B8,41 fold
6,B9,31.2 fold
7,B10,108 fold
8,B11,118 fold
9,B12,102 fold
10,B13,72.5 fold
11,B14,53.9 fold
12,B15,50.2 fold
13,B16,48.7 fold
14,B17,38.5 fold
15,B18,40.1 fold
16,B19,41.7 fold
17,B20,110 fold

# Biological target: T4, human PD-L1 on CHO cells
# Test: flow cytometry, CHO cells stably expressing PD-L1
row,Binder,MFI at 33.3 nM
1,B4,70.3 MFI
2,B5,7330 MFI
3,B6,5630 MFI
4,B7,3760 MFI
5,B8,2880 MFI
6,B9,2190 MFI
7,B10,7580 MFI
8,B11,8310 MFI
9,B12,7140 MFI
10,B13,5100 MFI
11,B14,3790 MFI
12,B15,3530 MFI
13,B16,3420 MFI
14,B17,2700 MFI
15,B18,2820 MFI
16,B19,2940 MFI
17,B20,7760 MFI

# Biological target: T5, CD28 (endogenously expressed on Jurkat/IL2 reporter cells) (human, UniProt P10747 19-220)
# T5 construct: Endogenous CD28 of Jurkat cells; also called human CD28
# Test: flow cytometry MFI at 33.3 nM relative to WT CD80 ECD-Fc (R&D), Jurkat cells
row,Binder,Fold change to WT
1,B1,0.04 fold
2,B2,0.04 fold
3,B3,0.04 fold

# Biological target: T2, human PD-L1 (full-length, expressed on …)
# Test: flow cytometry, MFI on CHO/huPD-L1 cells over MFI on Jurkat (CD28) cells, 33.3 nM
row,Binder,Ratio of PDL1:CD28
1,B1,140 ratio
2,B2,275 ratio
3,B3,256 ratio

# Biological target: T5, CD28 (endogenously expressed on …)
# Test: flow cytometry, Jurkat/IL2 reporter cells (endogenous CD28), PE anti-human Fc
row,Binder,MFI at 33.3 nM
1,B1,278 MFI
2,B2,274 MFI
3,B3,284 MFI

# Biological target: T6, human CTLA4 on CHO cells (human, UniProt P16410 36-223)
# T6 construct: whole, on cells; CHO cells stably expressing CTLA4; also called huCTLA4
# T6 sequence (P16410 36-223): as the sequence (P16410 36-223) above
# Test: flow cytometry, CHO/CTLA4 cells; MFI relative to WT CD80
row,Binder,Fold change to WT CD80
1,B4,1 fold
2,B5,14.8 fold
3,B6,13.5 fold
4,B7,14.6 fold
5,B8,15.8 fold
6,B9,15.8 fold
7,B10,12.6 fold
8,B11,8.7 fold
9,B12,14 fold
10,B13,14.5 fold
11,B14,11.2 fold
12,B15,13.7 fold
13,B16,14.4 fold
14,B17,14.6 fold
15,B18,16.8 fold
16,B19,10.9 fold
17,B20,12.2 fold

# Biological target: T7, human PD-L1 (huPD-L1), full-length, stably expressed on CHO cells (human, UniProt Q9NZQ7 19-290)
# T7 construct: whole, on cells
# T7 sequence (Q9NZQ7 19-290): as the sequence (Q9NZQ7 19-290) above
# Test: flow cytometry, CHO cells expressing huPD-L1
row,Binder,MFI at 33.3 nM
1,B21,13100 MFI
2,B22,24300 MFI

# Biological target: T6, human CTLA4 on CHO cells
# Test: flow cytometry, CHO cells stably expressing CTLA4
row,Binder,MFI at 33.3 nM
1,B4,1920 MFI
2,B5,28400 MFI
3,B6,25900 MFI
4,B7,27900 MFI
5,B8,30300 MFI
6,B9,30300 MFI
7,B10,24200 MFI
8,B11,16600 MFI
9,B12,26900 MFI
10,B13,27800 MFI
11,B14,21400 MFI
12,B15,26300 MFI
13,B16,27500 MFI
14,B17,27900 MFI
15,B18,32200 MFI
16,B19,20900 MFI
17,B20,23300 MFI

# Biological target: T4, human PD-L1 on CHO cells
# Test: flow cytometry; PD-L1 MFI over CD28 MFI
row,Binder,Ratio of PDL1:CD28
1,B4,1 ratio
2,B5,6 ratio
3,B6,7 ratio
4,B7,5 ratio
5,B8,18 ratio
6,B9,30 ratio
7,B10,14 ratio
8,B11,42 ratio
9,B12,36 ratio
10,B13,6 ratio
11,B14,4 ratio
12,B15,7 ratio
13,B16,5 ratio
14,B17,12 ratio
15,B18,1 ratio
16,B19,6 ratio
17,B20,8 ratio

# Biological target: T2, human PD-L1 (full-length, expressed on …)
# Test: flow cytometry MFI at 33.3 nM relative to WT CD80 ECD-Fc (R&D), CHO/huPD-L1 cells
row,Binder,Fold change to WT
1,B1,4.9 fold
2,B2,9.51 fold
3,B3,9.14 fold

# Biological target: T3, CD28 on Jurkat/IL2 reporter cells
# Test: flow cytometry, Jurkat cells (CD28); MFI relative to WT CD80
row,Binder,Fold change to WT CD80
1,B4,1 fold
2,B5,20.1 fold
3,B6,12.4 fold
4,B7,11.8 fold
5,B8,2.5 fold
6,B9,1.1 fold
7,B10,8 fold
8,B11,3 fold
9,B12,3 fold
10,B13,12.5 fold
11,B14,15.2 fold
12,B15,7.3 fold
13,B16,11.5 fold
14,B17,3.5 fold
15,B18,52.3 fold
16,B19,7 fold
17,B20,15.2 fold
